Laboratory results taken from patent publication US20170059576.

System: Immunoglobulin E (IgE), P01854-1
Conditions: 5'-hexylamine coupled Sulfo-SBED (phenyl azide, biotin); 365 nm photo-crosslinking, Western blot; marginal at highest protein concentration only

Sequence of Immunoglobulin E (IgE), P01854-1 (P01854 other isoform, or with tags, fused parts or gaps): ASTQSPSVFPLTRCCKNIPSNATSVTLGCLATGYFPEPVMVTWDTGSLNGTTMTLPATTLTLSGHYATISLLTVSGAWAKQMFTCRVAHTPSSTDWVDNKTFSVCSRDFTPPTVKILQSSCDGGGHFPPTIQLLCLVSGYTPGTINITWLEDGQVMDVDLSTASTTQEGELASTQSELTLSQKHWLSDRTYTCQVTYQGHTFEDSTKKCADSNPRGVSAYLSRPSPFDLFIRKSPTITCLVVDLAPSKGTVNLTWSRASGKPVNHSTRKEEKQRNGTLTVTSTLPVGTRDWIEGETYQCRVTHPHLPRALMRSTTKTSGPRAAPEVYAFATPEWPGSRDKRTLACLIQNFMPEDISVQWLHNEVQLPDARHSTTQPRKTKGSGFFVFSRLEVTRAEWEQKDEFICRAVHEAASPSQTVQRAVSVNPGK

CCAGCTGGCTCACCGTTCGCGCTAGGGCTTTCCGTCG [ABAL-D17.4sc]
binding signal (fold lower cross-linking than ABAL-D17.4): 17
